In test [1] the target is T1, Human CD33 full length, expressed on HEK293F cells (human, UniProt P20138 18-364).
T1 construct: HEK293F cells transduced with lentivirus containing full length human CD33; also called huCD33
The experiment in a line: flow cytometry, HEK293F cells expressing human CD33. Background: Flow cytometry measures light scatter and fluorescence of single cells or particles in a stream.

Test [2] has as its target Human CD33 ECD-HSA (human). The experiment in a line: ProteOn SPR, mAb captured by anti-human Fc, 1:1 Langmuir fit.
Test [3] has as its target T2, Cyno CD33 ECD-HSA (cynomolgus monkey).
T2 construct: Cyno CD33 extracellular domain fused to monomeric human serum albumin and a six-histidine tag; also called C33W1
Described as above.

Test [4] concerns the target T3, Cyno CD33 full length, expressed on HEK293F cells (cynomolgus monkey).
T3 construct: HEK293F cells transduced with lentivirus containing full length cyno CD33 (Genbank XP_005590138.1); also called cyCD33
Briefly: flow cytometry, HEK293F cells expressing cyno CD33.

The target in test [5] is Human CD33 ECD-HSA (human). Briefly: SPRi off-rate screen (IBIS MX96), mAb captured by anti-human Fc; column head prints KD.
Test [6] concerns the target T2, Cyno CD33 ECD-HSA. The experiment in a line: SPRi off-rate screen (IBIS MX96), mAb captured by anti-human Fc; column head prints Cyno CD33 binding KD.

As usually defined, the Kd is the concentration at which binding is half-saturated. Low readings indicate higher affinity, high ones lower affinity. In general, koff refers to a measure of how fast the partners let go of each other. High values mean a short-lived complex, low ones a long-lived complex. In general, kon refers to a measure of how fast the partners come together.

T1 sequence (P20138 18-364 limits assumed): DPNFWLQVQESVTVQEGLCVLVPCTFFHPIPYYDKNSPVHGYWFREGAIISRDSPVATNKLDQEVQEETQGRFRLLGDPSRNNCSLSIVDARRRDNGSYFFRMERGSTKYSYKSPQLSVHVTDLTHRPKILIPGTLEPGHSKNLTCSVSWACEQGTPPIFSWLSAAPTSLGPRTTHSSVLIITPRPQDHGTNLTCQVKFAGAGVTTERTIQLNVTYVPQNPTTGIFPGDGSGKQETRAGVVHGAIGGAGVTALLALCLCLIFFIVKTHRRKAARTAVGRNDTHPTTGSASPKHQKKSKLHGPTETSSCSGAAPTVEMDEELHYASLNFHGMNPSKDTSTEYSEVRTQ
Sequence of Human CD33 ECD-HSA (human) (chain, as listed by the source): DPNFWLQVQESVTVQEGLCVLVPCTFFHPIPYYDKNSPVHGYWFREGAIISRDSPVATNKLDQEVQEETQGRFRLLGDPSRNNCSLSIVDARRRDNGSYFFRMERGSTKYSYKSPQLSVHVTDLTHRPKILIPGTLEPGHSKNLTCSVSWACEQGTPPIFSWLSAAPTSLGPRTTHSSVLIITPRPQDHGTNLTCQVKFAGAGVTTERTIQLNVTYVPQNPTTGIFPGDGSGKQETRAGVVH

B1: C33B124 (antibody, IgG1, V domains shown)
VH: EVQLLESGGGLVQPGGSLRLSCAASRFTFSSYAMTWVRQAPGKGLEWVSTINISGGSTYYADSVKGRFTISRDNSKNTLYLQMNSLRAEDTAVYYCTKGGYSSGPFDYWGQGTLVSVSS
VL: SYELTQPPSVSVSPGQTASITCSGDKLGDKYVRWYQQKTGQSPVLVMYQDSKRPSGIRERFYGSNSGNTATPTISGTQAVDEAEYYCQAWDSSTGVVFGGGTKLTVL
notes: huIgG1 F405L; also called C33F129; C33H73/C33L32
For the molecule B1, in test [1], the “MFI at 0 nM mAb (background)” value was 172 MFI, the “MFI at 0.6 nM mAb” value stood at 90.3 MFI, the “MFI at 6 nM mAb” value is 126 MFI and the “MFI at 60 nM mAb” value was determined as 798 MFI. Further, in the test with Human CD33 ECD-HSA [2], the Kd is 350 pM, the koff was determined as 0.000124 s⁻¹ and the kon was found to be 357000 M⁻¹ s⁻¹. In the test with Cyno CD33 ECD-HSA [3], this molecule had a Kd of 1010 pM, a koff of 0.000472 s⁻¹ and a kon of 467000 M⁻¹ s⁻¹. In addition, in test [4], the “MFI at 0 nM mAb (background)” value turned out to be 98.4 MFI, the “MFI at 0.6 nM mAb” value worked out at 77.3 MFI, the “MFI at 6 nM mAb” value was determined as 132 MFI and the “MFI at 60 nM mAb” value came out at 593 MFI. For the same molecule, the koff with Human CD33 ECD-HSA [5] came to 0.000238 s⁻¹. This molecule also yielded an off-rate constant (koff) in the test with Cyno CD33 ECD-HSA [6] of 0.000477 s⁻¹.

B2: C33B80 (antibody, IgG1, V domains shown)
VH: EVQLLESGGGLVQPGGSLRLSCAASGFTFNYAMSWVRQAPGKGLEWVSAISGSGGSTYYADSVKGRFTISRDISKNTLYLQMNSLRAEDTAVYYCARTYNSGYYDGDFDYWGQGTLVTVSS
VL: QSALTQPASVSGSPGQSIPISSTGTSSDDGKNNIVSWYQQHPGKAPKLMIYKDSKRPSGVSNRFSGSKSGNTASLTISGLQADDEADYHCCSYAGASNHVVFGGGTKLTVL
notes: huIgG1 F405L; also called C33F85; C33H76/C33L39
B2: in test [1], the “MFI at 0 nM mAb (background)” value was determined as 88.9 MFI, the “MFI at 0.6 nM mAb” value worked out at 115 MFI, the “MFI at 6 nM mAb” value was found to be 410 MFI and the “MFI at 60 nM mAb” value is 5800 MFI. Moreover, in the test with Human CD33 ECD-HSA [2], binding was put at a Kd of 1320 pM, the koff was 0.000425 s⁻¹ and the kon turned out to be 323000 M⁻¹ s⁻¹. For the same molecule, in the test with Cyno CD33 ECD-HSA [3], the dissociation constant Kd was 527 pM, the koff stood at 0.000259 s⁻¹ and the kon was determined as 492000 M⁻¹ s⁻¹. Moreover, in test [4], the “MFI at 0 nM mAb (background)” value is 82.4 MFI, the “MFI at 0.6 nM mAb” value is 109 MFI, the “MFI at 6 nM mAb” value was 249 MFI and the “MFI at 60 nM mAb” value is 4610 MFI. This molecule also showed a koff in the test with Human CD33 ECD-HSA [5] of 0.000384 s⁻¹. The molecule further had a koff with Cyno CD33 ECD-HSA [6] of 0.000266 s⁻¹.

These data come from patent publication US20230322924A1 (Janssen / Centocor, published 2023).
